Results reported in US20110044995A1 (KUMAMOTO UNIVERSITY, published 2011).
Where “and” joins values, the source holds several entries; their conditions need not be identical. Equal entries are not always repeated.

B1: 0.5 δ(3D6) (antibody, IgG1, V domains shown)
VH: EVQLVESAAEVKKPGASVKVSCKASGYTFTSYGISWVRQAPGQGLQWMGWISAYNGNTKFAQEFKGRVTMTTDTSATTAYMELRSLRSDDTAVYYCARRNYYDSGSYYIRDGDYSMDVWGQGTLVTVSS
VL: not shown
notes: also called 3D6(0.5 δ); 0.5 d(3D6)
B2: 5G2 (antibody, IgG1, V domains shown)
VH: EVQLVESGGGVVRPGNSLRLSCAASGIIFSTANLHWLRHVPGKGLEWVAIISYDGHRQYYADLVKGRFTISRDNSKNTLHLQMDGLTSDDTAVYYCAKDGADENNLGPAFDYWGRGTLVTVSS
VL: EIVLTQSPATLSVSPGEGATLSCRASQSISSNLAWYQQKPGQAPRLLIYGASTGATGIPARFSGSGSGTDFTLTISRLEPEDFAIYYCQQYGSLPITFGQGTRLEIKR
B3: 0.5 γ(1C10) (antibody, IgG1, V domains shown)
VH: EVQLVESGGGLIQPGGSLRLSCAASGFTVSSSSMSWVRQAPEKGLEWVSVVYSGGNTYNADSVKGRFSISRDNSKNTVYLQMNSLRADDTAVYYCARDLGGGDRSSDYWGQGTLVTVSS
VL: DIQLTQSPSSLSASVGDRVTITCRASESINTYLNWYQQRPGKAPKLLIYAASTLQTGVPSRFSGSGSGTLFTLTISSLQPEDLATYYCQQSFSTLPYTLGRGTKVEIKG
notes: Human monoclonal from EBV-immortalised B cells of a long-term nonprogressor; also called 0.5γ(IC10); 1C10(0.5 γ)
B4: 42F9 (antibody, IgG1, V domains shown)
VH: EVQLVESGGGVVRPGGSLRLSCAASGFAFGEYGMSWVRQAPGKGLEWVSGINWNGGSTGYADSVQGRFTTSRDNAKNSLYLQMNSLRAEDTALYYCARDENYDILTGNYYYGMDVWGQGTTVTVSS
VL: DIQLTQSPSSLSASVGDRVTITCRASQSISNYLNWYQQKPGKAPKLLIYAASSLQSGVPSRFSGSGSGTDFTLTISSLQPEDFATFYCQQSHSIPYTFGQGTKLEIKR

Each binder was assayed against T1, monomeric gp120 (gp120-SF2; Austral Biologicals) (HIV-1 strain SF2, UniProt P03378 32-509) (assay: gp120-capture ELISA with or without 0.5 µg/ml sCD4).
T1 construct: domain: gp120; also called gp120 monomer

Binder	binding result
B1	binds
B2	binds

Target: T2, V3 peptide NNT20 (HIV-1 strain JR-FL)
T2 construct: Coated on the plate at 5 µg/ml
T2 peptide: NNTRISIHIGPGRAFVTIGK
Assay: V3-peptide ELISA, NNT20 coated at 5 µg/ml

Binder	binding result
B3	binds
B2	binds

The binders below were run against envelope of HIV-2 strain EHO (HIV-2 strain EHO) (assay: cell-based or functional assay).
Parameters: unit not given beside the values

Binder	IC50, neutralizing activity (MTT assay)
B1	> 50
B3	> 50
B2	> 50

The binders below were run against envelope of HIV-1 clinically isolated strain MIS (assay: cell-based or functional assay).
Parameters: unit not given beside the values

Binder	IC50, neutralizing activity (MTT assay)
B1	0.15
B3	> 50
B2	> 50

Each binder was assayed against envelope of HIV-1 clinically isolated strain kKGO (assay: cell-based or functional assay).
Parameters: unit not given beside the values

Binder	IC50, neutralizing activity (MTT assay)
B1	> 50
B3	0.32
B2	> 50

The binders below were run against envelope of HIV-1 strain YU2 (HIV-1 strain YU2, UniProt P35961 32-843) (assay: cell-based or functional assay).
Parameters: unit not given beside the values

Binder	IC50, neutralizing activity (MTT assay)
B1	> 50
B3	14
B2	> 50

Each binder was assayed against T3, envelope of HIV-2 strain ROD (HIV-2 strain ROD, UniProt P04577 20-858) (assay: cell-based or functional assay).
T3 sequence: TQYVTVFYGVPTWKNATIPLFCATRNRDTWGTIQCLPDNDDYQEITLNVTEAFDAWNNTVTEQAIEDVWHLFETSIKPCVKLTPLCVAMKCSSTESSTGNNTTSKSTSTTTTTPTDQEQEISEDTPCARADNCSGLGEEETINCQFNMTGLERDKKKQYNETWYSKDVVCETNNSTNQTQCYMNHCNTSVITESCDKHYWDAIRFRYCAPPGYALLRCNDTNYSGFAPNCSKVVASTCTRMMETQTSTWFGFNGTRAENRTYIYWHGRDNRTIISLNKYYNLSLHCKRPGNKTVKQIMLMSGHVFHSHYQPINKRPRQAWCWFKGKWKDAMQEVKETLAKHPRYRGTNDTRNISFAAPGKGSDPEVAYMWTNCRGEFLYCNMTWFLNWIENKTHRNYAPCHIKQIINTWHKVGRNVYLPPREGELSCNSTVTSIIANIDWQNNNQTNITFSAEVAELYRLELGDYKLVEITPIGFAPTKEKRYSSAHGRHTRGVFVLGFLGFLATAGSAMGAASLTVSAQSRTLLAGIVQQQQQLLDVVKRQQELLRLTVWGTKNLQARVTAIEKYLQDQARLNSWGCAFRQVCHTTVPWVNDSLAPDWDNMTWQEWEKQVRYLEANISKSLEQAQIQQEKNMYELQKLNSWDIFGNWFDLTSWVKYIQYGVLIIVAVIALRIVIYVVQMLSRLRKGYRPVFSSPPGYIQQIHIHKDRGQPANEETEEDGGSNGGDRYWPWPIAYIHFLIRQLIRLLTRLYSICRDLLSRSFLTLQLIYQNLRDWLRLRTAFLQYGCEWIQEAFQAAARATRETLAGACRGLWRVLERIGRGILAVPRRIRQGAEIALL
Parameters: unit not given beside the values

Binder	IC50, neutralizing activity (MTT assay)
B1	> 50
B3	> 50
B2	> 50

Each binder was assayed against envelope of HIV-1 clinically isolated strain MTA (assay: cell-based or functional assay).
Parameters: unit not given beside the values

Binder	IC50, neutralizing activity (MTT assay)
B1	0.15
B3	0.53
B2	0.009

The binders below were run against envelope of HIV-1 strain BaL (HIV-1 strain BaL) (assay: cell-based or functional assay).
Parameters: unit not given beside the values

Binder	IC50, neutralizing activity (MTT assay)
B1	> 50
B3	0.25
B2	5.8

The binders below were run against envelope of HIV-1 clinically isolated strain KMT (assay: cell-based or functional assay).
Parameters: unit not given beside the values

Binder	IC50, neutralizing activity (MTT assay)
B1	24
B3	24
B2	> 50

What follows are binders tested against envelope of HIV-1 clinically isolated strain MOKW (assay: cell-based or functional assay).
Parameters: unit not given beside the values

Binder	IC50, neutralizing activity (MTT assay)
B1	0.42
B3	0.02
B2	0.012

These binders were tested against envelope of HIV-1 strain JR-FL (JRFLwt), on virus (HIV-1 strain JR-FL) (assay: cell-based or functional assay).
Parameters: unit not given beside the values

Binder	IC50, neutralizing activity (MTT assay)
B1	> 50
B3	2.9
B2	37

The binders below were run against envelope of HIV-1 strain SF162 (HIV-1 strain SF162, UniProt P19550 32-847) (assay: cell-based or functional assay).
Parameters: unit not given beside the values

Binder	IC50, neutralizing activity (MTT assay)
B1	2.3
B3	0.053
B2	0.91

Each binder was assayed against envelope of HIV-1 strain 89.6 (HIV-1 strain 89.6, UniProt Q73372 32-853) (assay: cell-based or functional assay).
Parameters: unit not given beside the values

Binder	IC50, neutralizing activity (MTT assay)
B1	> 50
B3	0.12
B2	14

These binders were tested against envelope of HIV-1 clinically isolated strain YIS (assay: cell-based or functional assay).
Parameters: unit not given beside the values

Binder	IC50, neutralizing activity (MTT assay)
B1	2.3
B3	0.59
B2	> 50

What follows are binders tested against envelope of HIV-1 strain JRFLGPER (assay: cell-based or functional assay).
Parameters: unit not given beside the values

Binder	IC50, neutralizing activity (MTT assay)
B1	1.2
B3	26
B2	> 50

Each binder was assayed against envelope of HIV-1 strain IIIB (HIV-1 strain IIIB) (assay: cell-based or functional assay).
Parameters: unit not given beside the values

Binder	IC50, neutralizing activity (MTT assay)
B1	2
B3	> 50
B2	> 50

Each binder was assayed against envelope of HIV-1 clinically isolated strain TR43 (assay: cell-based or functional assay).
Parameters: unit not given beside the values

Binder	IC50, neutralizing activity (MTT assay)
B1	> 50
B3	> 50
B2	> 50

The binders below were run against envelope of HIV-1 clinically isolated strain YKI (assay: cell-based or functional assay).
Parameters: unit not given beside the values

Binder	IC50, neutralizing activity (MTT assay)
B1	2.4
B3	0.01
B2	1

These binders were tested against envelope of standard panel pseudotyped virus SVPB8 (HIV-1 subtype B) (assay: cell-based or functional assay).

Binder	IC50 in TZM-bl cells [µg/mL]
B4	> 50
B1	> 50
B3	> 150
B2	> 50

What follows are binders tested against envelope of standard panel pseudotyped virus SVPB17 (HIV-1 subtype B) (assay: cell-based or functional assay).

Binder	IC50 in TZM-bl cells [µg/mL]
B4	> 50
B1	> 50
B3	4.5
B2	50

What follows are binders tested against envelope of standard panel pseudotyped virus SVPB13 (HIV-1 subtype B) (assay: cell-based or functional assay).

Binder	IC50 in TZM-bl cells
B4	> 50 µg/mL
B1	> 50 µg/mL
B3	> 50 µg/mL and 110 µg/mL
B2	> 50 µg/mL

These binders were tested against envelope of standard panel pseudotyped virus SVPB6 (HIV-1 subtype B) (assay: cell-based or functional assay).

Binder	IC50 in TZM-bl cells [µg/mL]
B4	> 50
B1	> 50
B3	38
B2	> 50

What follows are binders tested against envelope of standard panel pseudotyped virus SVPB11 (HIV-1 subtype B) (assay: cell-based or functional assay).

Binder	IC50 in TZM-bl cells [µg/mL]
B4	> 50
B1	> 50
B3	35
B2	> 50

The binders below were run against envelope of standard panel pseudotyped virus SVPB16 (HIV-1 subtype B) (assay: cell-based or functional assay).

Binder	IC50 in TZM-bl cells [µg/mL]
B4	21
B1	> 50
B3	6.1
B2	> 50

Each binder was assayed against envelope of standard panel pseudotyped virus SVPB5 (HIV-1 subtype B) (assay: cell-based or functional assay).

Binder	IC50 in TZM-bl cells [µg/mL]
B4	4.5
B1	1.2
B3	0.23
B2	10.1

Each binder was assayed against envelope of standard panel pseudotyped virus SVPB18 (HIV-1 subtype B) (assay: cell-based or functional assay).

Binder	IC50 in TZM-bl cells [µg/mL]
B4	> 50
B1	> 50
B3	1.1
B2	11.5

Each binder was assayed against envelope of standard panel pseudotyped virus SVPB15 (HIV-1 subtype B) (assay: cell-based or functional assay).

Binder	IC50 in TZM-bl cells [µg/mL]
B4	> 50
B1	> 50
B3	> 150
B2	> 50

The binders below were run against envelope of standard panel pseudotyped virus SVPB14 (HIV-1 subtype B) (assay: cell-based or functional assay).

Binder	IC50 in TZM-bl cells [µg/mL]
B4	> 50
B1	> 50
B3	10.5
B2	> 50

What follows are binders tested against envelope of standard panel pseudotyped virus SVPB12 (HIV-1 subtype B) (assay: cell-based or functional assay).

Binder	IC50 in TZM-bl cells
B4	> 50 µg/mL
B1	> 50 µg/mL
B3	> 50 µg/mL and 82 µg/mL
B2	> 50 µg/mL

What follows are binders tested against T1, monomeric gp120 (gp120-SF2; Austral …) (assay: gp120-capture ELISA, B cell culture supernatant).

Binder	binding result
B4	binds
B3	binds
